Data taken from patent publication US20230391880A1 (published 2023).

T1: human TGF-β3 (human, UniProt P10600 301-412)
T1 sequence (looked up): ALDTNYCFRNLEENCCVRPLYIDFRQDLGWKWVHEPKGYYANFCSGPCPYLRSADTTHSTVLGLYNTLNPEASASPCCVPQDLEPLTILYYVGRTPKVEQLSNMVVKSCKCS

T2: human RANKL (receptor activator of nuclear factor-kappa B ligand) (human, UniProt O14788 140-317, limits assumed)
T2 construct: also called OPGL
T2 sequence (looked up): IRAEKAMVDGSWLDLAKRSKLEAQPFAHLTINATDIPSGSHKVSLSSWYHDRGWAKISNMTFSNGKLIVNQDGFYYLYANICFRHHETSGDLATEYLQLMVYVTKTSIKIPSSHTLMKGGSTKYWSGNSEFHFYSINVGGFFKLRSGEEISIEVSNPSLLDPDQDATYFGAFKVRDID

T3: human Activin A (human, UniProt A4D1W7 311-426, Activin A is a disulfide-linked homodimer of the inhibin beta A mature chain. One copy is given.)
T3 sequence: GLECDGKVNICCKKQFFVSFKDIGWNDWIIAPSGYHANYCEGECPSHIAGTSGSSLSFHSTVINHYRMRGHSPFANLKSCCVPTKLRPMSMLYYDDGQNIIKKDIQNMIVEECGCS


Columns and labels:
Test in all cases: BLI (Octet RED96), antagonist captured on biosensor, ligand in solution
human TGF-β1 = human TGF-β1 (human, UniProt P01137 279-390)
Description: (§1) Binding activities of individual bifunctional antagonists to human ligands or target proteins were measured by biolayer interferometry (BLI) using Octet RED96 (FortéBIO, Pall Corporation, USA). Binding analysis was performed by first capturing the polypeptide bifunctional antagonists to biosensors followed by two baseline steps in 1× kinetic buffer. The bifunctional antagonists-captured biosensors were then submerged in wells containing different concentrations of specific individual ligand, such as RANKL, Activin A, activin B, Activin AB, myostatin, TGF-β1, TGF-β2 or TGF-β3, for 6 min association followed by 6 min of dissociation time in 1× kinetic buffer. The bifunctional antagonists-captured sensors were also dipped in wells containing 1× kinetic buffer to allow single reference subtraction in order to compensate for the natural dissociation of captured bifunctional antagonists. The binding sensorgrams were collected using the 8-channel detection mode on the Octet RED96 biosensor. Data were acquired and analyzed using the data acquisition software v11.1 (FortéBIO, Pall Corporation, USA).

human TGF-β3 = target: T1, human TGF-β3
Description: as §1

[1] = target: T2, human RANKL (receptor activator of …)
Description: as §1

human Activin A = target: T3, human Activin A
Description: as §1

human TGF-β1, sequence (P01137 279-390 limits assumed): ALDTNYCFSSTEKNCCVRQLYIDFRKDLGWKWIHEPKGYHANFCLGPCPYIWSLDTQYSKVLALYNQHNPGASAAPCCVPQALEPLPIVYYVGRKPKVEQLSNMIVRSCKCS

Row | Kd (human TGF-β1) | Kd (human TGF-β3) | Kd [1] | Kd (human Activin A) | Binder
1 | ~2 nM | ~0.3 nM | ~0.7 nM |  | bispecific antibody A241 (bispecific antibody, human IgG2, kappa) heavy: QVQLVQSGAEVKKPGSSVKVSCKASGYTFSSNVISWVRQAPGQGLEWMGGVIPIVDIANYAQRFKGRVTITADESTSTTYMELSSLRSEDTAVYYCASTLGLVLDAMDYWGQGTLVTVSSGGGGSGGGGSGGGGSEVQLLESGGGLVQPGGSLRLSCAASGFTFSSYAMSWVRQAPGKGLEWVSGITGSGGSTYYADSVKGRFTISRDNSKNTLYLQMNSLRAEDTAVYYCAKDPGTTVIMSWFDPWGQGTLVTVSSASTKGPSVFPLAPCSRSTSESTAALGCLVKDYFPEPVTVSWNSGALTSGVHTFPAVLQSSGLYSLSSVVTVPSSNFGTQTYTCNVDHKPSNTKVDKTVERKCCVECPPCPAPPVAGPSVFLFPPKPKDTLMISRTPEVTCVVVDVSHEDPEVQFNWYVDGVEVHNAKTKPREEQFNSTFRVVSVLTVVHQDWLNGKEYKCKVSNKGLPAPIEKTISKTKGQPREPQVYTLPPSREEMTKNQVSLTCLVKGFYPSDIAVEWESNGQPENNYKTTPPMLDSDGSFFLYSKLTVDKSRWQQGNVFSCSVMHEALHNHYTQKSLSLSPGK light: ETVLTQSPGTLSLSPGERATLSCRASQSLGSSYLAWYQQKPGQAPRLLIYGASSRAPGIPDRFSGSGSGTDFTLTISRLEPEDFAVYYCQQYADSPITFGQGTRLEIKGGGGSGGGGSGGGGSEIVLTQSPGTLSLSPGERATLSCRASQSVRGRYLAWYQQKPGQAPRLLIYGASSRATGIPDRFSGSGSGTDFTLTISRLEPEDFAVFYCQQYGSSPRTFGQGTKVEIKRTVAAPSVFIFPPSDEQLKSGTASVVCLLNNFYPREAKVQWKVDNALQSGNSQESVTEQDSKDSTYSLSSTLTLSKADYEKHKVYACEVTHQGLSSPVTKSFNRGEC
2 |  |  | ~0.001 nM | ~0.3 nM | bispecific antibody A237 (bispecific antibody) heavy: QVQLVQSGAEVKKPGASVKVSCKASGYTFTSYGLSWVRQAPGQGLEWMGWIIPYNGNTNSAQKLQGRVTMTTDTSTSTAYMELRSLRSDDTAVYFCARDRDYGVNYDAFDIWGQGTMVTVSSGGGGSGGGGSGGGGSEVQLLESGGGLVQPGGSLRLSCAASGFTFSSYAMSWVRQAPGKGLEWVSGITGSGGSTYYADSVKGRFTISRDNSKNTLYLQMNSLRAEDTAVYYCAKDPGTTVIMSWFDPWGQGTLVTVSSASTKGPSVFPLAPCSRSTSESTAALGCLVKDYFPEPVTVSWNSGALTSGVHTFPAVLQSSGLYSLSSVVTVPSSNFGTQTYTCNVDHKPSNTKVDKTVERKCCVECPPCPAPPVAGPSVFLFPPKPKDTLMISRTPEVTCVVVDVSHEDPEVQFNWYVDGVEVHNAKTKPREEQFNSTFRVVSVLTVVHQDWLNGKEYKCKVSNKGLPAPIEKTISKTKGQPREPQVYTLPPSREEMTKNQVSLTCLVKGFYPSDIAVEWESNGQPENNYKTTPPMLDSDGSFFLYSKLTVDKSRWQQGNVFSCSVMHEALHNHYTQKSLSLSPGK light: not shown
